B1: MORAb-003 anti-FRA antibody reference standard (antibody, human IgG1, kappa, V domains shown)
VH: EVQLVESGGGVVQPGRSLRLSCSASGFTFSGYGLSWVRQAPGKGLEWVAMISSGGSYTYYADSVKGRFAISRDNAKNTLFLQMDSLRPEDTGVYFCARHGDDPAWFAYWGQGTPVTVSS
VL: DIQLTQSPSSLSASVGDRVTITCSVSSSISSNNLHWYQQKPGKAPKPWIYGTSNLASGVPSRFSGSGSGTDYTFTISSLQPEDIATYYCQQWSSYPYMYTFGQGTKVEIKR
modifications: N-linked neutral glycans at Asn299 in SEQ ID NO: 5
B2: MORAb-003 anti-FRA antibody, lot NB809-70 (CuCl supplement; harvested 13 days after initiation of culture) (antibody, human IgG1, kappa, V domains shown)
VH: EVQLVESGGGVVQPGRSLRLSCSASGFTFSGYGLSWVRQAPGKGLEWVAMISSGGSYTYYADSVKGRFAISRDNAKNTLFLQMDSLRPEDTGVYFCARHGDDPAWFAYWGQGTPVTVSS
VL: DIQLTQSPSSLSASVGDRVTITCSVSSSISSNNLHWYQQKPGKAPKPWIYGTSNLASGVPSRFSGSGSGTDYTFTISSLQPEDIATYYCQQWSSYPYMYTFGQGTKVEIKR
modifications: N-linked neutral glycans at Asn299 in SEQ ID NO: 5
B3: MORAb-003 anti-FRA antibody, lot NB809-69 (10 mM Na butyrate; harvested 13 days after initiation of culture) (antibody, human IgG1, kappa, V domains shown)
VH: EVQLVESGGGVVQPGRSLRLSCSASGFTFSGYGLSWVRQAPGKGLEWVAMISSGGSYTYYADSVKGRFAISRDNAKNTLFLQMDSLRPEDTGVYFCARHGDDPAWFAYWGQGTPVTVSS
VL: DIQLTQSPSSLSASVGDRVTITCSVSSSISSNNLHWYQQKPGKAPKPWIYGTSNLASGVPSRFSGSGSGTDYTFTISSLQPEDIATYYCQQWSSYPYMYTFGQGTKVEIKR
modifications: N-linked neutral glycans at Asn299 in SEQ ID NO: 5
B4: MORAb-003 anti-FRA antibody, lot NB809-67 (low DO; harvested 13 days after initiation of culture) (antibody, human IgG1, kappa, V domains shown)
VH: EVQLVESGGGVVQPGRSLRLSCSASGFTFSGYGLSWVRQAPGKGLEWVAMISSGGSYTYYADSVKGRFAISRDNAKNTLFLQMDSLRPEDTGVYFCARHGDDPAWFAYWGQGTPVTVSS
VL: DIQLTQSPSSLSASVGDRVTITCSVSSSISSNNLHWYQQKPGKAPKPWIYGTSNLASGVPSRFSGSGSGTDYTFTISSLQPEDIATYYCQQWSSYPYMYTFGQGTKVEIKR
modifications: N-linked neutral glycans at Asn299 in SEQ ID NO: 5
B5: MORAb-003 anti-FRA antibody, lot NB809-68 (high CO2; harvested 13 days after initiation of culture) (antibody, human IgG1, kappa, V domains shown)
VH: EVQLVESGGGVVQPGRSLRLSCSASGFTFSGYGLSWVRQAPGKGLEWVAMISSGGSYTYYADSVKGRFAISRDNAKNTLFLQMDSLRPEDTGVYFCARHGDDPAWFAYWGQGTPVTVSS
VL: DIQLTQSPSSLSASVGDRVTITCSVSSSISSNNLHWYQQKPGKAPKPWIYGTSNLASGVPSRFSGSGSGTDYTFTISSLQPEDIATYYCQQWSSYPYMYTFGQGTKVEIKR
modifications: N-linked neutral glycans at Asn299 in SEQ ID NO: 5
B6: MORAb-003 anti-FRA antibody, lot NB859-28 (low DO; harvested 14 days after initiation of culture) (antibody, human IgG1, kappa, V domains shown)
VH: EVQLVESGGGVVQPGRSLRLSCSASGFTFSGYGLSWVRQAPGKGLEWVAMISSGGSYTYYADSVKGRFAISRDNAKNTLFLQMDSLRPEDTGVYFCARHGDDPAWFAYWGQGTPVTVSS
VL: DIQLTQSPSSLSASVGDRVTITCSVSSSISSNNLHWYQQKPGKAPKPWIYGTSNLASGVPSRFSGSGSGTDYTFTISSLQPEDIATYYCQQWSSYPYMYTFGQGTKVEIKR
modifications: N-linked neutral glycans at Asn299 in SEQ ID NO: 5
notes: also called low DO (round 3)

Experiments:
[1] = biological target: T1, Human FRA on IGROV-1 human ovarian adenocarcinoma cells (human, UniProt P15328 25-234); experiment: cell-based or functional assay
T1 sequence (P15328 25-234 limits assumed): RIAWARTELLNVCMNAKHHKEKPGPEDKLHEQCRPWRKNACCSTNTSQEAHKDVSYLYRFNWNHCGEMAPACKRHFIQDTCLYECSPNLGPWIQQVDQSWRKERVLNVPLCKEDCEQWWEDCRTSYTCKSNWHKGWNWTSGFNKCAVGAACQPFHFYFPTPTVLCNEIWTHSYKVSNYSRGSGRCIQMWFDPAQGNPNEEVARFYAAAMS

[2] = biological target: T1, Human FRA on IGROV-1 human ovarian …; experiment: cell-based or functional assay; remark: listed apart in the source
[3] = biological target: T2, Recombinant human folate receptor alpha (FRA) (human, UniProt P15328 25-234); experiment: SPR, FRA on CM5 chip, parallel line analysis; reference standard = 100%
T2 construct: Immobilised on a CM5 chip by amine coupling; also called FR-alpha
T2 sequence (P15328 25-234 limits assumed): as above
Method: The surface was regenerated between cycles by flushing with 10 mM glycine pH 2.0.

[4] = biological target: T1, Human FRA on IGROV-1 human ovarian …; experiment: cell-based or functional assay; remark: listed apart in the source

Row | Binder | Internalization IC50 [1] | IC50 (Hum-ZAP secondary immunotoxin killing of IGROV-1 cells) [2] | Measured Potency (%) [3] | Half-Maximal Internalization Constant [1] | INTL % (0 Min) [4] | INTL % (15 min) [4] | INTL % (30 min) [4] | INTL % (60 min) [4] | INTL % (150 min) [4]
1 | B1 | 0.014 µg/mL | 14 ng·mL |  |  |  |  |  |  | 
2 | B2 | 0.027 µg/mL | 27 ng·mL | 48% | 53.3 min | 0% | 6% | 16% | 37% | 58%
3 | B3 | 0.024 µg/mL | 24 ng·mL | 49.3% | 51.2 min | 0% | 4% | 14% | 36% | 56%
4 | B4 | 0.029 µg/mL | 29 ng·mL | 56.2% | 50.7 min | 0% | 3% | 14% | 34% | 53%
5 | B5 | 0.028 µg/mL | 28 ng·mL | 50.5% | 46.5 min | 0% | 4% | 14% | 36% | 52%
6 | B6 |  |  | 44.5% | 36.5 min | 0% |  | 19% | 44% | 53%
